Source: PMC5746516

B1: NBCe1-B 3-point mutant (F922A, R925A, and K927A), GFP-tagged (natural protein)
chain: MEDEAVLDRGASFLKHVCDEEEVEGHHTIYIGVHVPKSYRRRRRHKRKTGHKEKKEKERISENYSDKSDIENADESSSSILKPLISPAAERIRFILGEEDDSPAPPQLFTELDELLAVDGQEMEWKETARWIKFEEKVEQGGERWSKPHVATLSLHSLFELRTCMEKGSIMLDREASSLPQLVEMIVDHQIETGLLKPELKDKVTYTLLRKHRHQTKKSNLRSLADIGKTVSSASRMFTNPDNGSPAMTHRNLTSSSLNDISDKPEKDQLKNKFMKKLPRDAEASNVLVGEVDFLDTPFIAFVRLQQAVMLGALTEVPVPTRFLFILLGPKGKAKSYHEIGRAIATLMSDEVFHDIAYKAKDRHDLIAGIDEFLDEVIVLPPGEWDPAIRIEPPKSLPSSDKRKNMYSGGENVQMNGDTPHDGGHGGGGHGDCEELQRTGRFCGGLIKDIKRKAPFFASDFYDALNIQALSAILFIYLATVTNAITFGGLLGDATDNMQGVLESFLGTAVSGAIFCLFAGQPLTILSSTGPVLVFERLLFNFSKDNNFDYLEFRLWIGLWSAFLCLILVATDASFLVQYFTRFTEEGFSSLISFIFIYDAFKKMIKLADYYPINSNFKVGYNTLFSCTCVPPDPANISISNDTTLAPEYLPTMSSTDMYHNTTFDWAFLSKKECSKYGGNLVGNNCNFVPDITLMSFILFLGTYTSSMALKKFKTSPYFPTTARKLISDFAIILSILIFCVIDALVGVDTPKLIVPSEFKPTSPNRGWFVPPFGENPWWVCLAAAIPALLVTILIFMDQQITAVIVNRKEHKLKKGAGYHLDLFWVAILMVICSLMALPWYVAATVISIAHIDSLKMETETSAPGEQPKFLGVREQRVTGTLVFILTGLSVFMAPILKFIPMPVLYGVFLYMGVASLNGVQAMDALALLLMPLKHQPDFIYLRHVPLRRVHLFTFLQVLCLALLWILKSTVAAIIFPVMILALVAVRKGMDYLFSQHDLSFLDDVIPEKDKKKKEDEKKKKKKKGSLDSDNDDSDCPYSEKVPSIKIPMDIMEQQPFLSDSKPSDRERSPTFLERHTSC
B2: NBCe1-B PP1-binding consensus residue deletion mutant (deletion of amino acids 922-927), GFP-tagged (natural protein)
chain: MEDEAVLDRGASFLKHVCDEEEVEGHHTIYIGVHVPKSYRRRRRHKRKTGHKEKKEKERISENYSDKSDIENADESSSSILKPLISPAAERIRFILGEEDDSPAPPQLFTELDELLAVDGQEMEWKETARWIKFEEKVEQGGERWSKPHVATLSLHSLFELRTCMEKGSIMLDREASSLPQLVEMIVDHQIETGLLKPELKDKVTYTLLRKHRHQTKKSNLRSLADIGKTVSSASRMFTNPDNGSPAMTHRNLTSSSLNDISDKPEKDQLKNKFMKKLPRDAEASNVLVGEVDFLDTPFIAFVRLQQAVMLGALTEVPVPTRFLFILLGPKGKAKSYHEIGRAIATLMSDEVFHDIAYKAKDRHDLIAGIDEFLDEVIVLPPGEWDPAIRIEPPKSLPSSDKRKNMYSGGENVQMNGDTPHDGGHGGGGHGDCEELQRTGRFCGGLIKDIKRKAPFFASDFYDALNIQALSAILFIYLATVTNAITFGGLLGDATDNMQGVLESFLGTAVSGAIFCLFAGQPLTILSSTGPVLVFERLLFNFSKDNNFDYLEFRLWIGLWSAFLCLILVATDASFLVQYFTRFTEEGFSSLISFIFIYDAFKKMIKLADYYPINSNFKVGYNTLFSCTCVPPDPANISISNDTTLAPEYLPTMSSTDMYHNTTFDWAFLSKKECSKYGGNLVGNNCNFVPDITLMSFILFLGTYTSSMALKKFKTSPYFPTTARKLISDFAIILSILIFCVIDALVGVDTPKLIVPSEFKPTSPNRGWFVPPFGENPWWVCLAAAIPALLVTILIFMDQQITAVIVNRKEHKLKKGAGYHLDLFWVAILMVICSLMALPWYVAATVISIAHIDSLKMETETSAPGEQPKFLGVREQRVTGTLVFILTGLSVFMAPILKFIPMPVLYGVFLYMGVASLNGVQLLLMPLKHQPDFIYLRHVPLRRVHLFTFLQVLCLALLWILKSTVAAIIFPVMILALVAVRKGMDYLFSQHDLSFLDDVIPEKDKKKKEDEKKKKKKKGSLDSDNDDSDCPYSEKVPSIKIPMDIMEQQPFLSDSKPSDRERSPTFLERHTSC

Molecular target: Protein phosphatase 1 (PP1) (UniProt P62136)
Experiment: co-IP

Chain of UniProt P62136 (P62136 whole entry): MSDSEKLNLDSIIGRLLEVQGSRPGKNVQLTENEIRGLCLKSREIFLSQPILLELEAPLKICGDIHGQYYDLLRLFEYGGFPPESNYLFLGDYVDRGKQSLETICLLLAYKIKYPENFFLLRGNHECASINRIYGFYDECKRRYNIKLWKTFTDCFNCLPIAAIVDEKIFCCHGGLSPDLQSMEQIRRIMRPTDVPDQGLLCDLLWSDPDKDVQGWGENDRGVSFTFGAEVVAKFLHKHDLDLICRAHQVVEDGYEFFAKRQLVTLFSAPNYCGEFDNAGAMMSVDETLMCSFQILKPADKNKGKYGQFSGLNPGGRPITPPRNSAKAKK

| Binder | interaction with PP1 by co-IP densitometry, percent of wild type [%] |
| --- | --- |
| B1 | 28.9 |
| B2 | 18.2 |
